Data published in patent US20100093090A1, “METHOD AND KIT FOR EFFICIENT REPROGRAMMING OF SOMATIC CELLS” (priority 2008, published 2010).

What was measured:
[1] = test system: human adult foreskin fibroblast (hAFF) cells; test: Human iPS cell generation from fibroblasts by lentiviral transduction of reprogramming factors (colony counting, AP staining, GFP silencing); format: cell-based
Protocol: 5×10^4 cells were plated onto a 10-cm dish. Shown are numbers of total colonies and AP-highly positive colonies (in parenthesis) counted on day 18 post-transduction. “4” indicates the reported four reprogramming factors OCT4 (O), SOX2 (S), KLF4 (K) and c-MYC (M). […] (C-E): Total colony numbers (left panels), highly AP-positive colony numbers (middle panels) and iPS colony numbers (right panels). The colony number shown are those induced from 10^5 cells plated on the feeder cells by different combinations of factors. The results of three independent experiments are shown with different colors. […] Numbers were counted on day 25 post-transduction; (D) The six factors (4PU) combination minus the reported four reprogramming factors, respectively. (Da and Db) Numbers were counted on day 25 post-transduction. (Dc) Numbers were counted on day 35 post-transduction. […] Numbers were counted on day 35 post-transduction.
Lentiviral vector containing OCT4, SOX2, c-MYC, KLF4, UTF1, p53 siRNA and control p53 siRNA respectively (15 μg) together with pMDLg/pRRE, RSV/Rev and VSV-G (FIG. 13 A, B, C) (5 μg for each), were respectively transfected into 293T cells with the Ca3(PO4)2-method in 10-cm dishes and incubated overnight. 12 hours later, the medium was changed and virus was collected after subsequent 36 hours cultivation. Viral supernatant was collected and filtered through 0.45 μm filters (Millipore) and then placed onto target fibroblasts supplemented with 10 ng/μl polybrene (Sigma-Aldrich). Typically, 1×10^5 fibroblasts in a well of 6-well plate were infected with 250 μl viral supernatant of each gene. The viral supernatant was changed with fibroblast culture medium after 12 hours. […] 5-6 days later, the infected cells were collected, counted, and plated onto MEF feeders (typically 2×10^4 to 1×10^5 cells for a 10-cm dish). […] The efficiency to generate iPS cells was calculated according to Takahashi's method, by which the number of cell colonies was counted and divided by the number of cells plated onto feeders (Takahashi et. al., 2007) (FIGS. 1C, 1D, 1E, 5C, and 5D). […]

[2] = test system: p53; test: Knockdown of p53 expression by p53 shRNA in hAFF; format: cell-based, human; conditions: nonsense siRNA as control
[3] = test system: iPS cell generation efficiency; test: iPS cell generation in presence of HDAC inhibitors (VPA, SBHA, Butyrate); format: cell-based
Protocol: FIG. 10. The colony number shown are those induced from 10^4 cells plated on the feeder cells by different combinations of factors. IPS colony numbers were counted on day 25 post-transduction. (O: OCT4; S:SOX2; K: KLF4; G: GFP; P: P53siRNA; U: UTF1). (A) In presence of VPA, iPS cell generation efficiency could be enhanced by UTF1 or P53 siRNA, or their combination. […] VS: VPA+SBHA; VB: VPA+Butyrate. The working concentrations of VPA, SBHA and Butyrate in this study were 0.5 mM, 2 μM, 0.1 mM, respectively.
Recently, it is reported that iPS cells could be generated when contacting with HDAC inhibitors (and/or other compounds) by a much higher efficiency. We further tested whether UTF1 and p53 siRNA would still work in the context of HDAC inhibitors.

[4] = with the four factors, day 25 post-transduction

B1: p53 siRNA: lentiviral pLL3.7-encoded shRNA against p53; DNA sequence encoding it GACTCCAGTGGTAATCTACT (SEQ ID NO: 6 and 7) (nucleic acid)
DNA 1: TGACTCCAGTGGTAATCTACTTCAAGAGAGTAGATTACCACTGGAGTCTTTTTTC
DNA 2: TCGAGAAAAAAGACTCCAGTGGTAATCTACTCTCTTGAAGTAGATTACCACTGGAGTCA
For B1, the “iPS cells obtained out of every 100,000 human adult fibroblast cells after infection” value ([1]; together with Oct4, Sox2 and Klf4, without c-Myc, about 1 month post-infection, on average) was “about 30”, the “highly AP-positive colony numbers and iPS colony numbers” value [1, 4] was “did not further exert its effect” and the “total numbers of cell colonies” value [1, 4] was “dramatically enhanced”. The “knockdown of p53 expression” value [2] was “efficient”, the “reprogramming efficiency when VPA was added” value ([3]; VPA 0.5 mM, 10^4 cells plated, day 25 post-transduction) was “enhance the reprogramming efficiency significantly” and the “reprogramming efficiency in presence of two HDAC inhibitor combination” value ([3]; VPA+SBHA or VPA+Butyrate, 0.5 mM, 2 μM, 0.1 mM, day 25) was “enhances reprogramming efficiency”.
